Results taken from publication PMC9508125, “The evolutionary advantage of an aromatic clamp in plant family 3 glycoside exo-hydrolases” (Nature Communications, 2022).
Substitutions are numbered along the chain they refer to. Names and notes keep the numbering of the source.

Tests used:
Native HvExoI = Native HvExoI (Hordeum vulgare, UniProt Q9XEI3); experiment: Inhibition by thio-analogues using the 4NP-Glc substrate; format: biochemical; settings: for Ki: apparent inhibition constant, 4NP-Glc substrate; for ΔG: calculated according to ∆G = -RT ln [1/Ki]
Chain of Native HvExoI (Q9XEI3 entry or part of it): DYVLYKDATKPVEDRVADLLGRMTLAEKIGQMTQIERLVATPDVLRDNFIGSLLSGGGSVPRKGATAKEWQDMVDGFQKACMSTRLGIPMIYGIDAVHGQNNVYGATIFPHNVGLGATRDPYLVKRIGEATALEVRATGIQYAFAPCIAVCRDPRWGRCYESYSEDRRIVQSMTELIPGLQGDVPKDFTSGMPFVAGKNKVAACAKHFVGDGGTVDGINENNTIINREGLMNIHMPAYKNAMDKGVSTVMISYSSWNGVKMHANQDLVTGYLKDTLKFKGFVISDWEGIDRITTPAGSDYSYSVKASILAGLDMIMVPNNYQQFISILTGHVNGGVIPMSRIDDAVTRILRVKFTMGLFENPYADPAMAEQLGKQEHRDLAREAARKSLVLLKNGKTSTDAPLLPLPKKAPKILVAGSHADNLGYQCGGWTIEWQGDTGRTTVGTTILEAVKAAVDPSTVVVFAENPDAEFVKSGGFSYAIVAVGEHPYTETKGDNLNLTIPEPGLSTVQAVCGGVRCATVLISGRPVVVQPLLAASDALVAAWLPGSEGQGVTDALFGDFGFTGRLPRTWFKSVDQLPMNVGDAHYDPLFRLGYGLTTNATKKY
Method: (§1) Dependency of activities of WT and mutant HvExoI on pH (McIlvaine buffers in the pH range of 3.5–8.5 at 30 °C) and temperature (100 mM sodium acetate buffer, pH 5.25, temperature range 0–80 °C, 15 min incubations) were determined using 0.2% (w/v) 4NP-Glc[21],[59]. Relative rates of hydrolysis of β-linked poly-, oligosaccharides, and aryl-glucosides were determined using near-homogenous HvExoI at 50 pmoles. […] Kinetic parameters were calculated from the analyses of Michaelis-Menten plots with Grafit 7.0.3[62] and processed by a proportional weighted fit, using nonlinear regression. The relative rates of hydrolysis, kinetic, and inhibition data were rounded to one or two decimal points (Supplementary Tables 2–4).

WT HvExoI [1] = target: T1, WT HvExoI (Hordeum vulgare, UniProt Q9XEI3); experiment: as above; format: biochemical; settings: for ΔG: calculated according to ∆G = -RT ln [1/Ki]; for type of inhibition: WT HvExoI
T1 sequence (Q9XEI3 entry or part of it): as above
Method: as §1

Recombinant HvExoI W286Y = format: biochemical, Hordeum vulgare; settings: calculated according to ∆G = -RT ln [1/Ki]
Method: as §1

Recombinant HvExoI W286F = experiment: Inhibition by thio-analogues using the 4NP-Glc substrate; format: biochemical, Hordeum vulgare; settings: calculated according to ∆G = -RT ln [1/Ki]
Method: as §1

Recombinant HvExoI W434A = experiment: as above; format: biochemical, Hordeum vulgare; settings: calculated according to ∆G = -RT ln [1/Ki]
Method: as §1

Recombinant HvExoI W434F = experiment: as above; format: biochemical, Hordeum vulgare; settings: for ΔG: calculated according to ∆G = -RT ln [1/Ki]
Method: as §1

Recombinant HvExoI W434H = experiment: as above; format: biochemical, Hordeum vulgare; settings: for ΔG: calculated according to ∆G = -RT ln [1/Ki]
Method: as §1

Recombinant HvExoI W434Y = experiment: as above; format: biochemical, Hordeum vulgare; settings: calculated according to ∆G = -RT ln [1/Ki]
Method: as §1

[2] = target: T2, HvExoI W286F/W434F mutant (Hordeum vulgare, UniProt Q9XEI3, W311F/W459F); experiment: Relative rates of hydrolysis of poly-, oligosaccharides and aryl-glycosides; format: biochemical; settings: substance is the substrate, nd = activity not detected
T2 sequence (Q9XEI3 26-630 W311F/W459F): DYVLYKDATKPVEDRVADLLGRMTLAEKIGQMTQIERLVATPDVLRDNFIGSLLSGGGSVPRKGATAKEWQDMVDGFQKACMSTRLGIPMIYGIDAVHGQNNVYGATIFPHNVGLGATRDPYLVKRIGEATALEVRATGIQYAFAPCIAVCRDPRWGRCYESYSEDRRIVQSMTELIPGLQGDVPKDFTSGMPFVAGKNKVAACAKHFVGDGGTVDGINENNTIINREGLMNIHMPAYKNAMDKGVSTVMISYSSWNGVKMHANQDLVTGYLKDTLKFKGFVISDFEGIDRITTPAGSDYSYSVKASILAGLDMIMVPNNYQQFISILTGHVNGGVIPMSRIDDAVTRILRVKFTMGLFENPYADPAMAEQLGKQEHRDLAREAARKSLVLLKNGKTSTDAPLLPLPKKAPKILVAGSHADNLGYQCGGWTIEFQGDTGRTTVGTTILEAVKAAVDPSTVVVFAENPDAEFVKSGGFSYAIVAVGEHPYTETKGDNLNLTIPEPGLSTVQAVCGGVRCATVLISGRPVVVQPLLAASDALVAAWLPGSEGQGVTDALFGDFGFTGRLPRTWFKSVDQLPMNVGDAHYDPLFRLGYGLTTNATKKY
Method: as §1

HvExoI W434H mutant = target: T3, HvExoI W434H mutant (Hordeum vulgare, UniProt Q9XEI3, W459H); experiment: as above; format: biochemical; settings: substance is the substrate
T3 sequence (Q9XEI3 26-630 W459H): T2 sequence (Q9XEI3 26-630 W311F/W459F) with F286W, F434H
Method: as §1

WT HvExoI [3] = target: T1, WT HvExoI; experiment: as above; format: biochemical; settings: substance is the substrate, HvExoI at 50 pmoles, nd = activity not detected
Method: as §1

[4] = substrate: O=[N+]([O-])c1ccc(O[C@@H]2O[C@H](CO)[C@@H](O)[C@H](O)[C@H]2O)cc1; experiment: Steady-state apparent kinetic constants with substrates; format: biochemical, Hordeum vulgare; settings: substance is the substrate, pH 5.25, 30.0 °C
[5] = substrate: OC[C@H]1O[C@@H](O[C@H]2[C@H](O)[C@@H](CO)OC(O)[C@@H]2O)[C@H](O)[C@@H](O)[C@@H]1O; experiment: as above; format: biochemical, Hordeum vulgare; settings: substance is the substrate, pH 5.25, 30.0 °C

CO[C@@H]1O[C@H](CO)[C@@H](S[C@@H]2O[C@H](CO)[C@@H](O)[C@H](O)[C@H]2O)[C@H](O)[C@H]1O [G4SG-OMe, methyl 4-thio-β-cellobioside] gave a Ki (Native HvExoI) of 1000 µM, a ΔG (Native HvExoI) of -4.16 kcal/mol and a Ki (WT HvExoI [1]; Recombinant WT, apparent inhibition constant, 4NP-Glc substrate) of 1000 µM. The ΔG (WT HvExoI [1]; Recombinant WT) was -4.16 kcal/mol, the type of inhibition (WT HvExoI [1]) was “competitive inhibition” and the ΔG (Recombinant HvExoI W286Y) was -3.68 kcal/mol. For the same molecule, the ΔG (Recombinant HvExoI W286F) was -3.75 kcal/mol, the ΔG (Recombinant HvExoI W434A) was -3.68 kcal/mol and the ΔG (Recombinant HvExoI W434F) was -3.42 kcal/mol. For the same molecule, the ΔG (Recombinant HvExoI W434H) was -3.85 kcal/mol and the ΔG (Recombinant HvExoI W434Y) was -3.3 kcal/mol.

lichenin was tested, and the “Activity (relative rate of hydrolysis)” value [2] was 0.03 ± 0.001 μmole/min per mg protein, the “Activity (relative rate of hydrolysis)” value (HvExoI W434H mutant) was 0.03 ± 0.01 μmole/min per mg protein and the “Activity (relative rate of hydrolysis)” value (WT HvExoI [3]) was 0.8 ± 0.1 μmole/min per mg protein.

CO[C@@H]1O[C@H](CS[C@@H]2O[C@H](CO)[C@@H](O)[C@H](O)[C@H]2O)[C@@H](O)[C@H](O)[C@H]1O [G6SG-OMe, methyl 6-thio-β-gentiobioside] showed a Ki (Native HvExoI) of 100 µM, a ΔG (Native HvExoI) of -5.54 kcal/mol and a ΔG (WT HvExoI [1]; Recombinant WT) of -5.09 kcal/mol. The type of inhibition (WT HvExoI [1]) was “competitive inhibition”, the ΔG (Recombinant HvExoI W286Y) was -4.88 kcal/mol and the ΔG (Recombinant HvExoI W286F) was -5.14 kcal/mol. For the same molecule, the “fold higher Ki constant value compared to WT” value (Recombinant HvExoI W434F) was 6 fold, the ΔG (Recombinant HvExoI W434F) was -4.47 kcal/mol and the “fold higher Ki constant value compared to WT” value (Recombinant HvExoI W434H) was 8 fold. It also gave a ΔG (Recombinant HvExoI W434H) of -4.3 kcal/mol and a ΔG (Recombinant HvExoI W434Y) of -4.88 kcal/mol.

In the case of CO[C@@H]1O[C@H](CO)[C@@H](O)[C@H](O)[C@H]1S[C@@H]1O[C@H](CO)[C@@H](O)[C@H](O)[C@H]1O [G2SG-OMe, methyl 2-thio-β-sophoroside], the ΔG (Native HvExoI) is reported as -3.75 kcal/mol and the ΔG (WT HvExoI [1]; Recombinant WT) is reported as -3.32 kcal/mol.

O=[N+]([O-])c1ccc(O[C@@H]2O[C@H](CO)[C@@H](O[C@@H]3O[C@H](CO)[C@@H](O)[C@H](O)[C@H]3O)[C@H](O)[C@H]2O)cc1 [4NP-cellobioside] was tested, and the “Activity (relative rate of hydrolysis)” value (HvExoI W434H mutant) was 0.04 ± 0.001 μmole/min per mg protein and the “Activity (relative rate of hydrolysis)” value (WT HvExoI [3]) was 0.9 ± 0.01 μmole/min per mg protein.

B1: HvExoI W286F mutant (Hordeum vulgare subsp. vulgare; W311F) (protein)
chain: T2 sequence (Q9XEI3 26-630 W311F/W459F) with F434W
B1 was tested, and the Km ([4]; other: W286F) was 2400 ± 300 µM, the kcat ([4]; other: W286F) was 1.9 ± 0.1 s⁻¹ and the kcat/Km ([4]; other: W286F) was 800 ± 10 M⁻¹ s⁻¹. It also gave a Km ([5]; other: W286F) of 400 ± 40 µM, a kcat ([5]; other: W286F) of 2.6 ± 0.2 s⁻¹ and a kcat/Km ([5]; other: W286F) of 5800 ± 400 M⁻¹ s⁻¹.

B2: HvExoI W434H mutant (Hordeum vulgare subsp. vulgare; W459H) (protein)
chain: T2 sequence (Q9XEI3 26-630 W311F/W459F) with F286W, F434H
In the case of B2, the Km ([4]; other: W434H) is reported as 2200 ± 200 µM, the kcat ([4]; other: W434H) is reported as 7.7 ± 0.6 s⁻¹ and the kcat/Km ([4]; other: W434H) is reported as 3500 ± 400 M⁻¹ s⁻¹. It also gave a Km ([5]; other: W434H) of 1700 ± 400 µM, a kcat ([5]; other: W434H) of 51.8 ± 2.0 s⁻¹ and a kcat/Km ([5]; other: W434H) of 31300 ± 7300 M⁻¹ s⁻¹.

B3: WT HvExoI (Hordeum vulgare subsp. vulgare) (protein)
chain: T2 sequence (Q9XEI3 26-630 W311F/W459F) with F286W, F434W
For B3, the Km ([4]; other: WT) was 2000 ± 150 µM, the kcat ([4]; other: WT) was 27.7 ± 2.5 s⁻¹ and the kcat/Km ([4]; other: WT) was 13900 ± 600 M⁻¹ s⁻¹.

B4: HvExoI W434A mutant (Hordeum vulgare subsp. vulgare; W459A) (protein)
chain: T2 sequence (Q9XEI3 26-630 W311F/W459F) with F286W, F434A
B4 was tested, and the Km ([4]; other: W434A) was 500 ± 100 µM, the kcat ([4]; other: W434A) was 9.5 ± 0.7 s⁻¹ and the kcat/Km ([4]; other: W434A) was 17600 ± 1800 M⁻¹ s⁻¹. It also gave a Km ([5]; other: W434A) of 2100 ± 200 µM, a kcat ([5]; other: W434A) of 2.6 ± 0.2 s⁻¹ and a kcat/Km ([5]; other: W434A) of 1300 ± 100 M⁻¹ s⁻¹.

B5: HvExoI W434Y mutant (Hordeum vulgare subsp. vulgare; W459Y) (protein)
chain: T2 sequence (Q9XEI3 26-630 W311F/W459F) with F286W, F434Y
In the case of B5, the Km ([4]; other: W434Y) is reported as 300 ± 30 µM, the kcat ([4]; other: W434Y) is reported as 1.2 ± 0.1 s⁻¹ and the kcat/Km ([4]; other: W434Y) is reported as 3500 ± 400 M⁻¹ s⁻¹. It also gave a Km ([5]; other: W434Y) of 600 ± 100 µM, a kcat ([5]; other: W434Y) of 2.0 ± 0.1 s⁻¹ and a kcat/Km ([5]; other: W434Y) of 3300 ± 300 M⁻¹ s⁻¹.

B6: HvExoI W286F/W434F mutant (Hordeum vulgare subsp. vulgare; W311F/W459F) (protein)
chain: T2 sequence (Q9XEI3 26-630 W311F/W459F)
B6 was tested, and the Km ([4]; other: W286F/W434F) was 600 ± 100 µM, the kcat ([4]; other: W286F/W434F) was 0.7 ± 0.02 s⁻¹ and the kcat/Km ([4]; other: W286F/W434F) was 1200 ± 200 M⁻¹ s⁻¹. The Km ([5]; other: W286F/W434F) was 200 ± 20 µM, the kcat ([5]; other: W286F/W434F) was 0.5 ± 0.04 s⁻¹ and the kcat/Km ([5]; other: W286F/W434F) was 3000 ± 600 M⁻¹ s⁻¹.

B7: HvExoI W286Y mutant (Hordeum vulgare subsp. vulgare; W311Y) (protein)
chain: T2 sequence (Q9XEI3 26-630 W311F/W459F) with F286Y, F434W
For B7, the Km ([4]; other: W286Y) was 2000 ± 100 µM, the kcat ([4]; other: W286Y) was 28.8 ± 2.9 s⁻¹ and the kcat/Km ([4]; other: W286Y) was 14600 ± 1500 M⁻¹ s⁻¹. The Km ([5]; other: W286Y) was 400 ± 40 µM, the kcat ([5]; other: W286Y) was 20.7 ± 1.7 s⁻¹ and the kcat/Km ([5]; other: W286Y) was 52600 ± 1500 M⁻¹ s⁻¹.

B8: HvExoI W286F/W434A mutant (Hordeum vulgare subsp. vulgare; W311F/W459A) (protein)
chain: T2 sequence (Q9XEI3 26-630 W311F/W459F) with F434A
B8 gave a Km ([4]; other: W286F/W434A) of 700 ± 40 µM, a kcat ([4]; other: W286F/W434A) of 1.9 ± 0.1 s⁻¹ and a kcat/Km ([4]; other: W286F/W434A) of 2500 ± 200 M⁻¹ s⁻¹. For the same molecule, the Km ([5]; other: W286F/W434A) was 700 ± 200 µM, the kcat ([5]; other: W286F/W434A) was 0.2 ± 0.02 s⁻¹ and the kcat/Km ([5]; other: W286F/W434A) was 200 ± 30 M⁻¹ s⁻¹.

B9: HvExoI W434F mutant (Hordeum vulgare subsp. vulgare; W459F) (protein)
chain: T2 sequence (Q9XEI3 26-630 W311F/W459F) with F286W
B9 showed a Km ([4]; other: W434F) of 600 ± 40 µM, a kcat ([4]; other: W434F) of 6.6 ± 0.7 s⁻¹ and a kcat/Km ([4]; other: W434F) of 12700 ± 2100 M⁻¹ s⁻¹. For the same molecule, the Km ([5]; other: W434F) was 1700 ± 200 µM, the kcat ([5]; other: W434F) was 17.1 ± 1.6 s⁻¹ and the kcat/Km ([5]; other: W434F) was 9900 ± 1200 M⁻¹ s⁻¹.
